Laboratory results published in EP2468776.

Target: T1, Slit2-His (UniProt O94813)
T1 chain: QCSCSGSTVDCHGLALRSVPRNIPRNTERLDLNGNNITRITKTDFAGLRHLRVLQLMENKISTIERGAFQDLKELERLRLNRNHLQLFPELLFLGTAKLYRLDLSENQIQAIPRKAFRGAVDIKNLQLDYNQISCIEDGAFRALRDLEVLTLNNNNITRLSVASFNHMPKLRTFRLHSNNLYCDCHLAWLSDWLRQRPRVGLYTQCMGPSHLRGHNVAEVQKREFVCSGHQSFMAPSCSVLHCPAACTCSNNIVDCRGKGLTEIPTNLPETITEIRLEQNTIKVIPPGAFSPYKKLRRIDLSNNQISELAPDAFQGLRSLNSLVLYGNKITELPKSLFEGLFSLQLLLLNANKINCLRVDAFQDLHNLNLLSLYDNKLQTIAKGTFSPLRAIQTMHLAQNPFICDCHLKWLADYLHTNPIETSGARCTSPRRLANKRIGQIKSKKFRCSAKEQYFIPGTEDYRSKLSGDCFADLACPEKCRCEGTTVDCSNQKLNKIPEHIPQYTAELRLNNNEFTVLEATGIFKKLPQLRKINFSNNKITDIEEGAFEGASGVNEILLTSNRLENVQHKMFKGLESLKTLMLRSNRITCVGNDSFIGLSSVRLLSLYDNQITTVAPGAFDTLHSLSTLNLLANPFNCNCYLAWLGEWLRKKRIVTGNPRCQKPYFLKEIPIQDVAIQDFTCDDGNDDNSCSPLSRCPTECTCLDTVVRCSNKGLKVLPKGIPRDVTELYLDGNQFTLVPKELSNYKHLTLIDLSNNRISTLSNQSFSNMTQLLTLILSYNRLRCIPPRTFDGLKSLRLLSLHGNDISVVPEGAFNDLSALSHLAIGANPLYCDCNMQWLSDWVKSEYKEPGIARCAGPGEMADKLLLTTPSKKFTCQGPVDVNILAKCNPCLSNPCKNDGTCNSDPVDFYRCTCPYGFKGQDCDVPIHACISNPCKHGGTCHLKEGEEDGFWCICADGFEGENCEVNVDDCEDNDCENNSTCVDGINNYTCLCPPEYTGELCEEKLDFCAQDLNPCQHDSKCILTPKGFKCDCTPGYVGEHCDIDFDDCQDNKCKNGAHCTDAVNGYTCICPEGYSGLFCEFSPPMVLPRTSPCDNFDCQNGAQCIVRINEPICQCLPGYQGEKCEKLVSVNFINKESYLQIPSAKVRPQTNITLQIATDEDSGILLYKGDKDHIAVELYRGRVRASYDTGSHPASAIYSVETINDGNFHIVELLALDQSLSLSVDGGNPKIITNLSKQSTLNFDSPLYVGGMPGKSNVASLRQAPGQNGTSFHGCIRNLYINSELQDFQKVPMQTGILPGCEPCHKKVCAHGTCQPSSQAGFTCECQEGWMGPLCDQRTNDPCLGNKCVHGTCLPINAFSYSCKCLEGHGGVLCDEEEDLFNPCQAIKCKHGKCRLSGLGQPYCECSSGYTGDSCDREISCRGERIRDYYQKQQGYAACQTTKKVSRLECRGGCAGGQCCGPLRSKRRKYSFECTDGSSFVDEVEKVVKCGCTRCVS
Assay: SPR

- binding result: no binding
B1: Robo4-Fc (protein)
chain: QDSPPQILVHPQDQLFQGPGPARMSCQASGQPPPTIRWLLNGQPLSMVPPDPHHLLPDGTLLLLQPPARGHAHDGQALSTDLGVYTCEASNRLGTAVSRGARLSVAVLREDFQIQPRDMVAVVGEQFTLECGPPWGHPEPTVSWWKDGKPLALQPGRHTVSGGSLLMARAEKSDEGTYMCVATNSAGHRESRAARVSIQEPQDYTEPVELLAVRIQLENVTLLNPDPAEGPKPRPAVWLSWKVSGPAAPAQSYTALFRTQTAPGGQGAPWAEELLAGWQSAELGGLHWGQDYEFKVRPSSGRARGPDSNVLLLRLPEKVPSAPPQEVTLKPGNGTVFVSWVPPPAENHNGIIRGYQVWSLGNTSLPPANWTVVGEQTQLEIATHMPGSYCVQVAAVTGAGAGEPSRPVCLLLEQAMERATQEPSEHGPWTLEQLRATLKRPEVIATCGVALWLLLLGTAVCIHRRRRARVHLGPGLYRYTSEDAILKHRMDHSDSQWLADTWRSTSGSRDLSSSSSLSSRLGADARDPLDCRRSLLSWDSRSPGVPLLPDTSTFYGSLIAELPSSTPARPSPQVPAVRRLPPQLAQLSSPCSSSDSLCSRRGLSSPRLSLAPAEAWKAKKKQELQHANSSPLLRGSHSLELRACELGNRGSKNLSQSPGAVPQALVAWRALGPKLLSSSNELVTRHLPPAPLFPHETPPTQSQQTQPPVAPQAPSSILLPAAPIPILSPCSPPSPQASSLSGPSPASSRLSSSSLSSLGEDQDSVLTPEEVALCLELSEGEETPRNSVSPMPRAPSPPTTYGYISVPTASEFTDMGRTGGGVGPKGGVLLCPPRPCLTPTPSEGSLANGWGSASEDNAASARASLVSSSDGSFLADAHFARALAVAVDSFGFGLEPREADCVFIDASSPPSPRDEIFLTPNLSLPLWEWRPDWLEDMEVSHTQRLGRGMPPWPPDSQISSQRSQLHCRMPKAGASPVDYS
